Results: patent publication US20060252116A1, “Icam-4 binding sites” (priority 2002, published 2006)

Key:
[1] = biological target: α4β1 integrin (VLA-4) (UniProt P13612); test: HEL cell adhesion to coated human ICAM-4Fc (2.5 ug/ml), peptide 750 uM; competitor human ICAM-4Fc
[2] = biological target: α4β1 integrin (VLA-4) (UniProt P13612); test: HEL cell adhesion to coated human ICAM-4Fc (2.5 ug/ml); value is for the MIXTURE of SEQ ID NO: 9 and 11, each peptide 750 uM
[3] = biological target: α4β1 integrin (VLA-4) (UniProt P13612); test: HEL cell adhesion to coated human ICAM-4Fc (2.5 ug/ml); value is for the MIXTURE of SEQ ID NO: 10 and 11, each peptide 750 uM
[4] = biological target: α4β1 integrin (VLA-4) (UniProt P13612); test: HEL cell adhesion to coated human ICAM-4Fc (2.5 ug/ml); value is for the MIXTURE of SEQ ID NO: 9, 10 and 11, each peptide 750 uM
[5] = biological target: α4β1 integrin (VLA-4) (UniProt P13612); test: HEL cell adhesion to coated human ICAM-4Fc (2.5 ug/ml); value is for the MIXTURE with control peptide SEQ ID NO: 13, each peptide 750 uM
[6] = biological target: α4β1 integrin (VLA-4) (UniProt P13612); test: HEL cell adhesion to coated human ICAM-4Fc (2.5 ug/ml); value is for the MIXTURE of SEQ ID NO: 9, 11 and control peptide 13, each peptide 750 uM
[7] = biological target: α4β1 integrin (VLA-4) (UniProt P13612); test: HEL cell adhesion to coated human ICAM-4Fc (2.5 ug/ml); value is for the MIXTURE of SEQ ID NO: 10, 11 and control peptide 13, each peptide 750 uM
[8] = biological target: α4β1 integrin (VLA-4) (UniProt P13612); test: HEL cell adhesion to coated human NCAMFc (control), no peptide
[9] = biological target: α4β1 integrin (VLA-4) (UniProt P13612); test: HEL cell adhesion to coated human ICAM-4Fc (5 ug/ml), peptide 500 uM; competitor human ICAM-4Fc
[10] = biological target: α4β1 integrin (VLA-4) (UniProt P13612); test: HEL cell adhesion to coated murine ICAM-4Fc (5 ug/ml), peptide 500 uM; competitor murine ICAM-4Fc
[11] = biological target: α4β1 integrin (VLA-4) (UniProt P13612); test: HEL cell adhesion to coated human ICAM-4Fc (5 ug/ml); value is for the MIXTURE of SEQ ID NO: 9 and 10, each peptide 500 uM
[12] = biological target: α4β1 integrin (VLA-4) (UniProt P13612); test: HEL cell adhesion to coated murine ICAM-4Fc (5 ug/ml); value is for the MIXTURE of SEQ ID NO: 9 and 10, each peptide 500 uM
[13] = biological target: α4β1 integrin (VLA-4) (UniProt P13612); test: HEL cell adhesion to coated human ICAM-4Fc (2.5 ug/ml); value is for the MIXTURE of SEQ ID NO: 9 and 10, each peptide 750 uM
[14] = biological target: α4β1 integrin (VLA-4) (UniProt P13612); test: HEL cell adhesion to coated human ICAM-4Fc (5 ug/ml); value is for the MIXTURE with control peptide SEQ ID NO: 13, each peptide 500 uM
[15] = biological target: α4β1 integrin (VLA-4) (UniProt P13612); test: HEL cell adhesion to coated murine ICAM-4Fc (5 ug/ml); value is for the MIXTURE with control peptide SEQ ID NO: 13, each peptide 500 uM
[16] = biological target: α4β1 integrin (VLA-4) (UniProt P13612); test: HEL cell adhesion to coated human ICAM-4Fc (2.5 ug/ml); value is for the MIXTURE of SEQ ID NO: 9, 10 and control peptide 13, each peptide 750 uM

Sequence of α4β1 integrin (VLA-4) (P13612 34-1032, chain 1 of 2): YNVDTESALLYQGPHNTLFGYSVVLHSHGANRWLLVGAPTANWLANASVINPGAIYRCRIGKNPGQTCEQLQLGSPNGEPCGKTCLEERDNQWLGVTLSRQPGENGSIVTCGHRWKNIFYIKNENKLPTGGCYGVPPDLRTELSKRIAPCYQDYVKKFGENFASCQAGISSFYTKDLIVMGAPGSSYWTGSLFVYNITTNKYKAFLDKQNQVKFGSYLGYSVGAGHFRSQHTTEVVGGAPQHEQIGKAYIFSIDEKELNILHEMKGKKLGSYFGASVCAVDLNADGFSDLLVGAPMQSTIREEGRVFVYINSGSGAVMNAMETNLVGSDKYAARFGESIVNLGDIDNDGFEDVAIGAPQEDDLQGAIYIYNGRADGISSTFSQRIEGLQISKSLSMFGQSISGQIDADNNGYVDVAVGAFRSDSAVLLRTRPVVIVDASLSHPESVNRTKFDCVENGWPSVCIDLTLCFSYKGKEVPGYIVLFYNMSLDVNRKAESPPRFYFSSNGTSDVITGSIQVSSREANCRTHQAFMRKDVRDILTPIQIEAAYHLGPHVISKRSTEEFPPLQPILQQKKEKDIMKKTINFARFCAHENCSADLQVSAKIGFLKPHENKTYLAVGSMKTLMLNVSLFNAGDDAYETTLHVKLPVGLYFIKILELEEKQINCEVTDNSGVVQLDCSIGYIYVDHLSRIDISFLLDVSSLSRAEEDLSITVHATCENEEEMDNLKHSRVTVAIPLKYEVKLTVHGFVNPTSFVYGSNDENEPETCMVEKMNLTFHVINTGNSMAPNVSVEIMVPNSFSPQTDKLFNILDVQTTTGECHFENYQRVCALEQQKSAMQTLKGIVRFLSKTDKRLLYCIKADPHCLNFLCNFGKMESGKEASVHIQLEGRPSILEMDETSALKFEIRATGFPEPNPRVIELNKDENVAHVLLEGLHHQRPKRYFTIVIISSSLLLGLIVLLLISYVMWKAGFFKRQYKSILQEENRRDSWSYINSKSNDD
Sequence of α4β1 integrin (VLA-4) (P05556 21-798, chain 2 of 2, further chain): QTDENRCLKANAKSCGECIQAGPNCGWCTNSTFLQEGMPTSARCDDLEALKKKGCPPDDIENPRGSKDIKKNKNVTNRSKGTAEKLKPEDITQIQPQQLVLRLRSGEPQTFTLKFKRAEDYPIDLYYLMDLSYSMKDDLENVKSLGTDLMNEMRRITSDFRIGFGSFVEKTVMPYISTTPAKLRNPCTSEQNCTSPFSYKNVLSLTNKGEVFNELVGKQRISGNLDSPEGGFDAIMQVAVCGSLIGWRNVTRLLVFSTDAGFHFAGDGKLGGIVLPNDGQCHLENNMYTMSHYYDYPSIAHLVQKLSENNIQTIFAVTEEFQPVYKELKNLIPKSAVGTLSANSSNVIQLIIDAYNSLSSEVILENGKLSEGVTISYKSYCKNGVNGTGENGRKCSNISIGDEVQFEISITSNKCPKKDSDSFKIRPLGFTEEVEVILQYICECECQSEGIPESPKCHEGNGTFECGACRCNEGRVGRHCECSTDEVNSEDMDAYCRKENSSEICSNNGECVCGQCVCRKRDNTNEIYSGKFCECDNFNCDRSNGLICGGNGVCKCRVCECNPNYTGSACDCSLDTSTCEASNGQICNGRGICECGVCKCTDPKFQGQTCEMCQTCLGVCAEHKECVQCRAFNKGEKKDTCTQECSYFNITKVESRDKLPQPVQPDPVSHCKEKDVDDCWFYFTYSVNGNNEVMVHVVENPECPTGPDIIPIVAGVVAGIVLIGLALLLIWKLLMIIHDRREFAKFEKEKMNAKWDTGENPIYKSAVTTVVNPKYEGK

Substance	input cells bound as % of binding to ICAM-4Fc in the absence of peptides [1]	input cells bound as % of binding to ICAM-4Fc in the absence of peptides [2]	input cells bound as % of binding to ICAM-4Fc in the absence of peptides [3]	input cells bound as % of binding to ICAM-4Fc in the absence of peptides [4]	input cells bound as % of binding to ICAM-4Fc in the absence of peptides [5]	input cells bound as % of binding to ICAM-4Fc in the absence of peptides [6]	input cells bound as % of binding to ICAM-4Fc in the absence of peptides [7]	input cells bound as % of binding to ICAM-4Fc in the absence of peptides [8]	input cells bound as % of binding to murine ICAM-4Fc in the absence of peptides [8]	input cells bound as % of binding to ICAM-4Fc in the absence of peptides [9]	input cells bound as % of binding to murine ICAM-4Fc in the absence of peptides [10]	input cells bound as % of binding to ICAM-4Fc in the absence of peptides [11]	input cells bound as % of binding to murine ICAM-4Fc in the absence of peptides [12]	input cells bound as % of binding to ICAM-4Fc in the absence of peptides [13]	input cells bound as % of binding to ICAM-4Fc in the absence of peptides [14]	input cells bound as % of binding to murine ICAM-4Fc in the absence of peptides [15]	input cells bound as % of binding to ICAM-4Fc in the absence of peptides [16]
aWssLahcl peptide (SEQ ID NO: 11)	50%	43%	41%	42%	46%	42%	40%	–	–	–	–	–	–	–	–	–	–
human NCAMFc (from UniProt P13591 20-718) (Fc fusion)	–	–	–	–	–	–	–	3%	19%	–	–	–	–	–	–	–	–
svpFWVrms peptide (SEQ ID NO: 9)	64%	43%	–	42%	59%	42%	–	–	–	61%	67%	35%	47%	52%	60%	70%	49%
tRwATSRit peptide (SEQ ID NO: 10)	58%	–	41%	42%	55%	–	40%	–	–	58%	58%	35%	47%	52%	56%	55%	49%
